Test results as given in patent US20060246543.

Target: T1, STAT4 immunoprecipitated with anti-STAT4 from ConA-activated thymocytes
T1 sequence (P42228 1-749, species assumed, looked up): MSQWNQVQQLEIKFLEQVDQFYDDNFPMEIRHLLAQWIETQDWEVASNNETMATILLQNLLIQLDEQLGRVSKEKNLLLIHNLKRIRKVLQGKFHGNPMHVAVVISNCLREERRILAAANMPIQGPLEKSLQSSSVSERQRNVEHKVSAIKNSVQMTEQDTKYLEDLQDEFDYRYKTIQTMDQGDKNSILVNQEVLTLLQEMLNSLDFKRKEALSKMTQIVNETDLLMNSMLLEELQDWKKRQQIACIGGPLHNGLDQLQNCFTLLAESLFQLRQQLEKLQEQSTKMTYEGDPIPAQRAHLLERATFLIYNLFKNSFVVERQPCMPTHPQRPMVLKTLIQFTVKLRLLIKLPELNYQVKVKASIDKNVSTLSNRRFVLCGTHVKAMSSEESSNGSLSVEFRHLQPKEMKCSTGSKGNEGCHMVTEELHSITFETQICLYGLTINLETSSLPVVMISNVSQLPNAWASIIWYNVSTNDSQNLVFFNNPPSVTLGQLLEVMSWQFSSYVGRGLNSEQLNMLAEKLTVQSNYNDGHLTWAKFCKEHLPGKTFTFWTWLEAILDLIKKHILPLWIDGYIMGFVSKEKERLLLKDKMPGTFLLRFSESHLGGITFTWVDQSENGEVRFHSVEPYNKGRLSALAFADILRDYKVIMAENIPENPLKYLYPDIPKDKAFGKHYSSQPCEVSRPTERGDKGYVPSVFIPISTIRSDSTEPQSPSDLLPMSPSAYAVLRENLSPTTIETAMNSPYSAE

B1: recombinant SLIM (His-SLIM expressed in E. coli and purified on a Nickel column) (protein)
chain: MALTVDVAGPAPWGFRISGGRDFHTPIIVTKVTERGKAEAADLRPGDIIVAINGQSAENMLHAEAQSKIRQSASPLRLQLDRSQTASPGQTNGEGSLEVLATRFQGSLRTHRDSQSSQRSACFSPVSLSPRPCSPFSTPPPTSPVALSKEDMIGCSFQSLTHSPGLAAAHHLTYPGHPTSQQAGHSSPSDSAVRVLLHSPGRPSSPRFSLDLEEDSEVFKMLQENRQGRAAPRQSSSFRLLQEALEAEERGGTPAFVPSSLSSQASLPTSRALATPPKLHTCKKCSVNISNQAVRIQEGRYRHPGCYTCADCGLNLKMRGHFWVGNELYCEKHARQRYSMPGTLNSRA
For B1, the “in vitro ubiquitination of STAT4 (biotin-ubiquitin, E1, UbcH5a; immunoblot anti-STAT4)” value was “purified recombinant SLIM could mediate the in vitro ubiquitination of purified STAT4 which was immunoprecipitated from ConA-activated thymocytes”.
